Data taken from paper PMC6916386.

B1: Single stranded nucleic acid binding protein (Sbp1), wild type, galactose-inducible with ZZ (protein A) tag, from wild-type yeast R153 [modified: arginine-methylated in yeast … (parent)
chain 1: MSAEIEEATNAVNNLSINDSEQQPRAPTHKTVIDPEDTIFIGNVAHECTEDDLKQLFVEEFGDEVSVEIPIKEHTDGHIPASKHALVKFPTKIDFDNIKENYDTKVVKDREIHIKRARTPGQMQRGGFRGRGGFRGRGGFRGGFRGGYRGGFRGRGNFRGRGGARGGFNGQKREKIPLDQMERSKDTLYINNVPFKATKEEVAEFFGTDADSISLPMRKMRDQHTGRIFTSDSANRGMAFVTFSGENVDIEAKAEEFKGKVFGDRELTVDVAVIRPENDEEEIEQETGSEEKQE
chain 2: MTDETAHPTQSASKQESAALKQTGDDQQESQQQRGYTNYNNGSNYTQKKPYNSNRPHQQRGGKFGPNRYNNRGNYNGGGSFRGGHMGANSSNVPWTGYYNNYPVYYQPQQMAAAGSAPANPIPVEEKSPVPTKIEITTKSGEHLDLKEQHKAKLQSQERSTVSPQPESKLKETSDSTSTSTPTPTPSTNDSKASSEENISEAEKTRRNFIEQVKLRKAALEKKRKEQLEGSSGNNNIPMKTTPENVEEKGSDKPEVTEKTKPAEEKSAEPEVKQETPAEEGEQGEKGQIKEESTPKVLTFAERLKLKKQQKEREEKTEGKENKEVPVQEETKSAIESAPVPPSEQVKEETEVAETEQSNIDESATTPAIPTKSDEAEAEVEAEAGDAGTKIGLEAEIETTTDETDDGTNTVSHILNVLKDATPIEDVFSFNYPEGIEGPDIKYKKEHVKYTYGPTFLLQFKDKLNVKADAEWVQSTASKIVIPPGMGRGNRSRDSGRFGNNSSRGHDFRNTSVRNMDDRANSRTSSKRRSKRMNDDRRSNRSYTSRRDRERGSYRNEEKREDDKPKEEVAPLVPSANRWVPKFKSKKTEKKLAPDGKTELLDKDEVERKMKSLLNKLTLEMFDAISSEILAIANISVWETNGETLKAVIEQIFLKACDEPHWSSMYAQLCGKVVKELNPDITDETNEGKTGPKLVLHYLVARCHAEFDKGWTDKLPTNEDGTPLEPEMMSEEYYAAASAKRRGLGLVRFIGFLYRLNLLTGKMMFECFRRLMKDLTDSPSEETLESVVELLNTVGEQFETDSFRTGQATLEGSQLLDSLFGILDNIIQTAKISSRIKFKLIDIKELRHDKNWNSDKKDNGPKTIQQIHEEEERQRQLKNNSRSNSRRTNNSSNRHSFRRDAPPASKDSFITTRTYSQRNSQRAPPPKEEPAAPTSTATNMFSALMGESDDEE

Variants of: B1
Assay: glutathione pull-down, PAP blot band quantified
Settings: with eukaryotic translation initiation factor 4G1 fused to GST (eIF4G1-GST) [yeast]; purified eIF4G1-GST incubated with yeast lysate; n = 3; parent: 100; read off a plot

| percent of parent | Variant |
| --- | --- |
| 25 % binding | chain 1 R125A R129A R131A R135A R137A R141A R145A R149A R153A R155A R159A R161A R165A |
